Consider 3 molecules from patent US20260250420A1 (SICHUAN KELUN BIOTECH BIOPHARMACEUTICAL, published 2026).

For experiment [1], the target named is T1, human PTK7 on cells (tumor cells endogenously expressing PTK7); CHO-hPTK7, CHO-S-hPTK7 and 293T-hPTK7 … (human, UniProt Q13308 31-1070).
T1 construct: whole, on cells; The cell line of each value is named under assay; also called H1299; H358
T1 sequence (looked up): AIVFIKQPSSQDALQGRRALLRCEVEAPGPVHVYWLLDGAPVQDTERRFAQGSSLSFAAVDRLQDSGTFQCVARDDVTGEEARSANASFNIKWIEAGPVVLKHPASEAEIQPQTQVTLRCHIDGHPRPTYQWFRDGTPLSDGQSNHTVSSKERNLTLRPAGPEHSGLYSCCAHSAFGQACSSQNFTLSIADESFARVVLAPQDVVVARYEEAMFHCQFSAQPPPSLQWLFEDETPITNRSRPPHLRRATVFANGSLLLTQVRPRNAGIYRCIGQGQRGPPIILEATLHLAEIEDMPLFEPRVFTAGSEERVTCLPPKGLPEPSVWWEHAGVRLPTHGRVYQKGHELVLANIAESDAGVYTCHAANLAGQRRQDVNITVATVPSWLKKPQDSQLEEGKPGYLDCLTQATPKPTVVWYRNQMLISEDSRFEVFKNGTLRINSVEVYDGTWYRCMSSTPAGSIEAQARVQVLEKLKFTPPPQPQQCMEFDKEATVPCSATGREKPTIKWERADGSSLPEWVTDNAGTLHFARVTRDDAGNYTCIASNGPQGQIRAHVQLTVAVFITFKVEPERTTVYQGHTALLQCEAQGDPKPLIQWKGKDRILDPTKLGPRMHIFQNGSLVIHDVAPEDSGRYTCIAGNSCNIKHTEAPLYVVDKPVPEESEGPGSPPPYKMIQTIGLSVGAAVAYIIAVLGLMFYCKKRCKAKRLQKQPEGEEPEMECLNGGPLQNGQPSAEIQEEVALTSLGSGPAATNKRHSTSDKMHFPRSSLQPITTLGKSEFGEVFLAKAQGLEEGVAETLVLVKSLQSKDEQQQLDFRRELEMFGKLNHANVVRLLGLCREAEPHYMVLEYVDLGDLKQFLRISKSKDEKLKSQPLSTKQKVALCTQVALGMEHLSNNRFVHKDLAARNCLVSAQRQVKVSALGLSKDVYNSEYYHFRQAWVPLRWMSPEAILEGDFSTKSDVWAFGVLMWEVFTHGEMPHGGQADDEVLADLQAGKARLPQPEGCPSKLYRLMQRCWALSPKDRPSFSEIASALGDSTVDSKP
The experiment can be described thus: flow cytometry on H1975 cells. From the text:
(§1) A flow cytometer (Beckman, Cytoflex) was used for detecting the affinity of the anti-human PTK7 chimeric and humanized antibodies with human non-small cell lung cancer cells H1299, human lung adenocarcinoma cells H1975, human breast cancer cells T47D, human ovarian cancer cells OVCAR-3 (all purchased from NANJING COBIOER BIOSCIENCES CO., LTD) and CHO-hPTK7 overexpression cells.
(§2) The adherent cells were digested by using a pancreatin (Gibco) solution; a proper amount of cells were counted and taken, washed twice by using 1×PBS, and re-suspended in a 1% BSA solution; and then the cells were transferred into a 96-well deep plate at a density of 50 μl/well; a candidate antibody was diluted by using 1% BSA, then 50 μl of diluted antibody was added into the deep plate containing the cells, and incubated for 40 min at 4° C.; the cells were washed twice by using PBS, then 50 μl of diluted secondary antibody was added into each well, uniformly mixed, and incubated for 30 min at 4° C.; and the cells were washed twice by using PBS, then re-suspended in 400 μl of PBS, and subjected to examination by flow cytometer.

The target in experiment [2] is T1, human PTK7 on cells (tumor cells …). The experiment can be described thus: flow cytometry on CHO-hPTK7 overexpression cells.
Description: as §1, §2

Experiment [3] shares this target. The experiment in a line: flow cytometry on T47D cells.
Description: as §1, §2

Experiment [4] concerns the target T2, monkey PTK7 protein (extracellular sequence of monkey PTK7 with C-terminal 6×His tag) (monkey).
T2 chain: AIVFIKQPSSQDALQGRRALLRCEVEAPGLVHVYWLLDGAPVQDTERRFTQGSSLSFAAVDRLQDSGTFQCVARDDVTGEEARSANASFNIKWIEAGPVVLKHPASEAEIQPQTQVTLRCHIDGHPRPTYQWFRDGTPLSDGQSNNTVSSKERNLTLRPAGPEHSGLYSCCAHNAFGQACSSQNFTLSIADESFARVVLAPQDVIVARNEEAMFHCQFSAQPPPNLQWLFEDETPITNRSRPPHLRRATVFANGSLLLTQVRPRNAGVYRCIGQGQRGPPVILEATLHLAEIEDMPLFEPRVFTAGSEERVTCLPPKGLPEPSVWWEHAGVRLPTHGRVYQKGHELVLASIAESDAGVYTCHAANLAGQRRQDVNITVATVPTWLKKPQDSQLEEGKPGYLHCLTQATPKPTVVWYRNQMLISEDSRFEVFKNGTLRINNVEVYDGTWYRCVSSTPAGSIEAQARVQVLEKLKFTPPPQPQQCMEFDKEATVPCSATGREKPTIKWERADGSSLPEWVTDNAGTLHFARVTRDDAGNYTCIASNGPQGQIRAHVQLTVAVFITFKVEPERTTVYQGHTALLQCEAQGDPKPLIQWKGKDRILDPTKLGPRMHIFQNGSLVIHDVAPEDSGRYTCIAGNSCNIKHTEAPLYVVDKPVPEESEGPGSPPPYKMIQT
The experiment in a line: ELISA, coated monkey PTK7 protein.

For experiment [5], the target named is T1, human PTK7 on cells (tumor cells …). The experiment can be described thus: flow cytometry on H1299 cells.
Description: as §1, §2

For experiment [6] the target is unchanged. The experiment in a line: flow cytometry on OVCAR-3 cells.
Description: as §1, §2

Experiment [7] deals with T3, rat PTK7 protein (extracellular sequence of rat PTK7 with C-terminal 6×His tag) (rat, UniProt A0A8I6ALM9 40-713).
T3 construct: extracellular domain; Expressed transiently in HEK293 cells
The experiment in a line: ELISA, coated rat PTK7 protein.

B1: Hu24 (PTK7 control antibody, taken from Hu24 in the Patent CN201580030255) (antibody)
chain 1: QVQLVQSGPEVKKPGASVKVSCKASGYTFTDYAVHWVRQAPGKRLEWIGVISTYNDYTYNNQDFKGRVTMTRDTSASTAYMELSRLRSEDTAVYYCARGNSYFYALDYWGQGTSVTVSS
chain 2: EIVLTQSPATLSLSPGERATLSCRASESVDSYGKSFMHWYQQKPGQAPRLLIYRASNLESGIPARFSGSGSGTDFTLTISSLEPEDFAVYYCQQSNEDPWTFGGGTKLEIK
For B1, the half-maximal effective concentration (EC50) in experiment [1] stood at 0.134 µg/mL; in experiment [2] it was 0.308 µg/mL; in experiment [3], 0.0861 µg/mL; in experiment [4], 0.134 µg/mL; in experiment [5], 0.0649 µg/mL; in experiment [6] it was 0.123 µg/mL.

B2: 64A10HZ (anti-human PTK7 humanized antibody) (antibody, human IgG1, kappa, V domains shown)
VH: QVQLQESGPGLVKPSETLSLTCTVSGFSLTSYGVYWVRQPPGKGPEWLGVIWTSGNTNYNPSLKSRLTISKDNSKNQVSLKLSSVTAADTAVYYCVKHDGGNYVGVMNYWGQGTLVTVSS
VL: EIVMTQSPDFQSVTPKEKVTITCRASQSISDYLHWYQQKPDQSPKLLIKYASQSISGVPSRFSGSGSGSDFTLTINSLEAEDAATYYCQNGHSFPPTFGQGTKLEIKR
notes: Human IgG1 heavy chain constant region and human Kappa light chain constant region; expressed in CHO-S cells
Consider B2, for which the EC50 in experiment [1] amounted to 0.0767 µg/mL; in experiment [3], 0.217 µg/mL; in experiment [4], 0.0201 µg/mL; in experiment [5], 0.0475 µg/mL; in experiment [6], 0.0613 µg/mL. Moreover, in experiment [7], the binding result is “no binding”.

B3: 101A6HZ (anti-human PTK7 humanized antibody) (antibody, human IgG1, kappa)
heavy: not shown
light: DIVMTQSPDSLAVSLGERATINCKASQDVGSAVIWYQQKPGQSPKLLIYWASTRHTGVPDRFSGSGSGTDFTLTISSLQAEDVAVYYCQQYSSYPLTFGQGTKLEIKRTVAAPSVFIFPPSDEQLKSGTASVVCLLNNFYPREAKVQWKVDNALQSGNSQESVTEQDSKDSTYSLSSTLTLSKADYEKHKVYACEVTHQGLSSPVTKSFNRGEC
B3: the EC50 in experiment [1] is 0.178 µg/mL; in experiment [2] it was 0.176 µg/mL; in experiment [3] it was 0.0968 µg/mL; in experiment [4], 1.23 µg/mL; in experiment [5], 0.0843 µg/mL. In addition, in experiment [7], the binding result was “no binding”.
